Measured values taken from paper PMC10786891, “Massively parallel profiling of RNA-targeting CRISPR-Cas13d”.

T1: EsCas13d, nuclease-dead (Eubacterium siraeum, UniProt B0MS50, R295A;H300A;R849A;H854A)
T1 sequence: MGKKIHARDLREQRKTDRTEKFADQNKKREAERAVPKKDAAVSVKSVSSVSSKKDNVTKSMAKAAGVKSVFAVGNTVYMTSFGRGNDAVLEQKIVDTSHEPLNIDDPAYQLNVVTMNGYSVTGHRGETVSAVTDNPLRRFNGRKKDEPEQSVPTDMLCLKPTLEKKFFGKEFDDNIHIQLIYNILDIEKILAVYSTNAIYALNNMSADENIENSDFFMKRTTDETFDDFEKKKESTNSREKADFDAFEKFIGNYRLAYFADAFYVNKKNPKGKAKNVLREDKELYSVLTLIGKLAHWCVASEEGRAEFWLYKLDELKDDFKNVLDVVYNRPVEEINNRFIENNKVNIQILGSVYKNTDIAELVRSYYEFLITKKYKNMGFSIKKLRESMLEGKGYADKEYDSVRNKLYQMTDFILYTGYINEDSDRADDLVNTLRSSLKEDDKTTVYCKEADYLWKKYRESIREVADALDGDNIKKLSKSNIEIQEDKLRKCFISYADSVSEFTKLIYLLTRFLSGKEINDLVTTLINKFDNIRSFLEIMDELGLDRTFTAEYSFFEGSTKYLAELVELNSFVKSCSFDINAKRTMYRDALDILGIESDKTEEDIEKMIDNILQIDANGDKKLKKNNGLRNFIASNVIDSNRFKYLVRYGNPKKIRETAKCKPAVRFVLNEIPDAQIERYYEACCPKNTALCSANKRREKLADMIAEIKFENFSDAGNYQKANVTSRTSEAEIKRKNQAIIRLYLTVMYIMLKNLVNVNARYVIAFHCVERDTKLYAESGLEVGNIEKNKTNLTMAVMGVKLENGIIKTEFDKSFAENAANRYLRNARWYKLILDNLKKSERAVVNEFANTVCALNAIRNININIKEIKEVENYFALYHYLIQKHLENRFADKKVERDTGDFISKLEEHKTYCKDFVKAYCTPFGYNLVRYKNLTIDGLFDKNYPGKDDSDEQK


Molecular target: T1, EsCas13d, nuclease-dead
Assay: crRNA (strand 1, pre-loaded); Mg2+; 40 mM Tris-HCl pH 7.5, 150 mM NaCl, 6 mM MgCl2, 1 mM DTT, 0.1% Tween-20, 0.2 mg/ml BSA; 25 C; 10 min per concentration, then washed
Details: tags: His6-TwinStrep-SUMO cleaved; N-terminal SNAP kept (SNAP-Surface 488); label: 3' end held by stalled T7 RNA polymerase

Row | Binder | Kd [nM]
1 | target 1 insA 3' of 17,insC 3' of 8 (mixed) RNA 1: CACCCGUGCAAAAAUGCAGGGGUCUAAAACUGAGCGGAUAACCUCUCUAUGG RNA 2: GGGAAUGGAUCCACAUCUACGAAUUCGUACCAUAGAAGAGGUUAUCCCGCUCACCGAGAUCGGAAGAGCACACGU | 18.6 ± 1.3
2 | target 1 G5A,C7G (mixed) RNA 1: CACCCGUGCAAAAAUGCAGGGGUCUAAAACUGAGCGGAUAACCUCUCUAUGG RNA 2: GGGAAUGGAUCCACAUCUACGAAUUCGUACCAUAGAGAGGUUAUGCACUCACCGAGAUCGGAAGAGCACACGU | 11.8 ± 0.8
3 | target 1 C4G,U8G (mixed) RNA 1: CACCCGUGCAAAAAUGCAGGGGUCUAAAACUGAGCGGAUAACCUCUCUAUGG RNA 2: GGGAAUGGAUCCACAUCUACGAAUUCGUACCAUAGAGAGGUUAGCCGGUCACCGAGAUCGGAAGAGCACACGU | 5.52 ± 0.21
4 | target 1 insU 3' of 21,insU 3' of 9 (mixed) RNA 1: CACCCGUGCAAAAAUGCAGGGGUCUAAAACUGAGCGGAUAACCUCUCUAUGG RNA 2: GGGAAUGGAUCCACAUCUACGAAUUCGUACCUAUAGAGAGGUUAUUCCGCUCACCGAGAUCGGAAGAGCACACGU | 37 ± 4
5 | target 1 insC 3' of 15,insC 3' of 12 (mixed) RNA 1: CACCCGUGCAAAAAUGCAGGGGUCUAAAACUGAGCGGAUAACCUCUCUAUGG RNA 2: GGGAAUGGAUCCACAUCUACGAAUUCGUACCAUAGAGCAGGCUUAUCCGCUCACCGAGAUCGGAAGAGCACACGU | 60 ± 13
6 | target 1 insC 3' of 5 (mixed) RNA 1: CACCCGUGCAAAAAUGCAGGGGUCUAAAACUGAGCGGAUAACCUCUCUAUGG RNA 2: GGGAAUGGAUCCACAUCUACGAAUUCGUACCAUAGAGAGGUUAUCCGCCUCACCGAGAUCGGAAGAGCACACGU | 9.6 ± 0.7
7 | target 1 C7U,G17C (mixed) RNA 1: CACCCGUGCAAAAAUGCAGGGGUCUAAAACUGAGCGGAUAACCUCUCUAUGG RNA 2: GGGAAUGGAUCCACAUCUACGAAUUCGUACCAUACAGAGGUUAUUCGCUCACCGAGAUCGGAAGAGCACACGU | 77 ± 35
8 | target 1 insU 3' of 12,insC 3' of 8 (mixed) RNA 1: CACCCGUGCAAAAAUGCAGGGGUCUAAAACUGAGCGGAUAACCUCUCUAUGG RNA 2: GGGAAUGGAUCCACAUCUACGAAUUCGUACCAUAGAGAGGUUUAUCCCGCUCACCGAGAUCGGAAGAGCACACGU | 19.5 ± 1
9 | target 1 insU 3' of 7,insG 3' of 2 (mixed) RNA 1: CACCCGUGCAAAAAUGCAGGGGUCUAAAACUGAGCGGAUAACCUCUCUAUGG RNA 2: GGGAAUGGAUCCACAUCUACGAAUUCGUACCAUAGAGAGGUUAUCUCGCUCGACCGAGAUCGGAAGAGCACACGU | 15.3 ± 1.2
10 | target 1 G5A,A9G (mixed) RNA 1: CACCCGUGCAAAAAUGCAGGGGUCUAAAACUGAGCGGAUAACCUCUCUAUGG RNA 2: GGGAAUGGAUCCACAUCUACGAAUUCGUACCAUAGAGAGGUUGUCCACUCACCGAGAUCGGAAGAGCACACGU | 19.3 ± 1.1
11 | target 1 insA 3' of 10,insC 3' of 8 (mixed) RNA 1: CACCCGUGCAAAAAUGCAGGGGUCUAAAACUGAGCGGAUAACCUCUCUAUGG RNA 2: GGGAAUGGAUCCACAUCUACGAAUUCGUACCAUAGAGAGGUUAAUCCCGCUCACCGAGAUCGGAAGAGCACACGU | 15.4 ± 0.8
12 | target 1 insG 3' of 14,insA 3' of 6 (mixed) RNA 1: CACCCGUGCAAAAAUGCAGGGGUCUAAAACUGAGCGGAUAACCUCUCUAUGG RNA 2: GGGAAUGGAUCCACAUCUACGAAUUCGUACCAUAGAGAGGGUUAUCCAGCUCACCGAGAUCGGAAGAGCACACGU | 14.6 ± 1.3
13 | target 1 del7 (mixed) RNA 1: CACCCGUGCAAAAAUGCAGGGGUCUAAAACUGAGCGGAUAACCUCUCUAUGG RNA 2: GGGAAUGGAUCCACAUCUACGAAUUCGUACCAUAGAGAGGUUAUCGCUCACCGAGAUCGGAAGAGCACACGU | 8.01 ± 0.33
14 | target 1 insA 3' of 19,insC 3' of 9 (mixed) RNA 1: CACCCGUGCAAAAAUGCAGGGGUCUAAAACUGAGCGGAUAACCUCUCUAUGG RNA 2: GGGAAUGGAUCCACAUCUACGAAUUCGUACCAUAAGAGAGGUUACUCCGCUCACCGAGAUCGGAAGAGCACACGU | 55 ± 4
15 | target 1 insU 3' of 21,insA 3' of 3 (mixed) RNA 1: CACCCGUGCAAAAAUGCAGGGGUCUAAAACUGAGCGGAUAACCUCUCUAUGG RNA 2: GGGAAUGGAUCCACAUCUACGAAUUCGUACCUAUAGAGAGGUUAUCCGCUACACCGAGAUCGGAAGAGCACACGU | 18.1 ± 0.9
16 | target 1 insC 3' of 18,insG 3' of 2 (mixed) RNA 1: CACCCGUGCAAAAAUGCAGGGGUCUAAAACUGAGCGGAUAACCUCUCUAUGG RNA 2: GGGAAUGGAUCCACAUCUACGAAUUCGUACCAUACGAGAGGUUAUCCGCUCGACCGAGAUCGGAAGAGCACACGU | 38.9 ± 2.9
17 | target 1 C2A,C7A (mixed) RNA 1: CACCCGUGCAAAAAUGCAGGGGUCUAAAACUGAGCGGAUAACCUCUCUAUGG RNA 2: GGGAAUGGAUCCACAUCUACGAAUUCGUACCAUAGAGAGGUUAUACGCUAACCGAGAUCGGAAGAGCACACGU | 5.34 ± 0.16
18 | target 1 insC 3' of 17,insA 3' of 15 (mixed) RNA 1: CACCCGUGCAAAAAUGCAGGGGUCUAAAACUGAGCGGAUAACCUCUCUAUGG RNA 2: GGGAAUGGAUCCACAUCUACGAAUUCGUACCAUAGCAGAAGGUUAUCCGCUCACCGAGAUCGGAAGAGCACACGU | 28 ± 4
19 | target 1 A1G,U19G (mixed) RNA 1: CACCCGUGCAAAAAUGCAGGGGUCUAAAACUGAGCGGAUAACCUCUCUAUGG RNA 2: GGGAAUGGAUCCACAUCUACGAAUUCGUACCAGAGAGAGGUUAUCCGCUCGCCGAGAUCGGAAGAGCACACGU | 51 ± 6
20 | target 1 insC 3' of 16,insA 3' of 7 (mixed) RNA 1: CACCCGUGCAAAAAUGCAGGGGUCUAAAACUGAGCGGAUAACCUCUCUAUGG RNA 2: GGGAAUGGAUCCACAUCUACGAAUUCGUACCAUAGACGAGGUUAUCACGCUCACCGAGAUCGGAAGAGCACACGU | 63 ± 15
21 | target 1 insU 3' of 15,insA 3' of 15 (mixed) RNA 1: CACCCGUGCAAAAAUGCAGGGGUCUAAAACUGAGCGGAUAACCUCUCUAUGG RNA 2: GGGAAUGGAUCCACAUCUACGAAUUCGUACCAUAGAGUAAGGUUAUCCGCUCACCGAGAUCGGAAGAGCACACGU | 19 ± 1.7
22 | target 1 C7G,A14U (mixed) RNA 1: CACCCGUGCAAAAAUGCAGGGGUCUAAAACUGAGCGGAUAACCUCUCUAUGG RNA 2: GGGAAUGGAUCCACAUCUACGAAUUCGUACCAUAGAGUGGUUAUGCGCUCACCGAGAUCGGAAGAGCACACGU | 66 ± 16
23 | target 1 complement block 4-9 (mixed) RNA 1: CACCCGUGCAAAAAUGCAGGGGUCUAAAACUGAGCGGAUAACCUCUCUAUGG RNA 2: GGGAAUGGAUCCACAUCUACGAAUUCGUACCAUAGAGAGGUUUAGGCGUCACCGAGAUCGGAAGAGCACACGU | 7.99 ± 0.28
24 | target 1 C4A,A20U (mixed) RNA 1: CACCCGUGCAAAAAUGCAGGGGUCUAAAACUGAGCGGAUAACCUCUCUAUGG RNA 2: GGGAAUGGAUCCACAUCUACGAAUUCGUACCUUAGAGAGGUUAUCCGAUCACCGAGAUCGGAAGAGCACACGU | 21.1 ± 3.3
25 | target 1 C4G,C7G (mixed) RNA 1: CACCCGUGCAAAAAUGCAGGGGUCUAAAACUGAGCGGAUAACCUCUCUAUGG RNA 2: GGGAAUGGAUCCACAUCUACGAAUUCGUACCAUAGAGAGGUUAUGCGGUCACCGAGAUCGGAAGAGCACACGU | 9.7 ± 0.5
26 | target 1 del9,del11 (mixed) RNA 1: CACCCGUGCAAAAAUGCAGGGGUCUAAAACUGAGCGGAUAACCUCUCUAUGG RNA 2: GGGAAUGGAUCCACAUCUACGAAUUCGUACCAUAGAGAGGUUCCGCUCACCGAGAUCGGAAGAGCACACGU | 13.2 ± 1
27 | target 1 insU 3' of 18,insG 3' of 4 (mixed) RNA 1: CACCCGUGCAAAAAUGCAGGGGUCUAAAACUGAGCGGAUAACCUCUCUAUGG RNA 2: GGGAAUGGAUCCACAUCUACGAAUUCGUACCAUAUGAGAGGUUAUCCGCGUCACCGAGAUCGGAAGAGCACACGU | 20 ± 1.2
28 | target 1 insC 3' of 15,insC 3' of 15 (mixed) RNA 1: CACCCGUGCAAAAAUGCAGGGGUCUAAAACUGAGCGGAUAACCUCUCUAUGG RNA 2: GGGAAUGGAUCCACAUCUACGAAUUCGUACCAUAGAGCCAGGUUAUCCGCUCACCGAGAUCGGAAGAGCACACGU | 26.6 ± 1.5
